This assay has as its target syntaxin 1 (rat (endogenous in PC12)) (UniProt P32851). The assay can be described thus: immunostaining of cells or tissue; PC12 membrane sheets incubated in buffer at 37 °C for increasing periods before fixation, immunostained for Munc18–1; no re-binding (large volume of buffer); trace fitted to a double-exponential decay.

Half-time of dissociation from the membrane, fast component of a double-exponential decay and half-time of dissociation from the membrane, slow component of a double-exponential decay data for one substance are collected here from article PMC1570500.

Sequence of UniProt P32851 (P32851 whole entry): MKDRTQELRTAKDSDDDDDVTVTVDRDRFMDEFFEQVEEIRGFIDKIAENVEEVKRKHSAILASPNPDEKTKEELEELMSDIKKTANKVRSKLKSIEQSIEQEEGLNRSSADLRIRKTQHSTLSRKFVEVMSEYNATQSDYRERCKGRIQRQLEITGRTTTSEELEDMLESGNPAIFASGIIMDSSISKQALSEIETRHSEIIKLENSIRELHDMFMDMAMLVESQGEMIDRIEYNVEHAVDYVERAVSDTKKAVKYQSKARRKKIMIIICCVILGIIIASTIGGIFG

The substance “Munc18–1 (from UniProt P61765 1-594) (natural protein)” displayed a half-time of dissociation from the membrane, fast component of a double-exponential decay of 5 s and a half-time of dissociation from the membrane, slow component of a double-exponential decay of 1000 s.
